Test results: patent US10385103B2, “Cell-permeable (ICP)-SOCS3 recombinant protein and uses thereof” (CELLIVERY THERAPEUTICS, INC., priority 2014, dated 2019)
Entries after “also recorded” stand apart in the source; their conditions may differ.

What was measured:
SK-Hep-1 cells [1] = experiment: Induction of apoptosis, Annexin V/7-AAD staining; format: cell-based, human; details: example 20-2
Procedure: (§1) AGS cells (gastric carcinoma cell line) (American Type Culture Collection; ATCC) were seeded in a 12-well plate at a density of 1×10^5 cells/well, and then treated with 10 uM of aMTD/SD-fused SOCS3 for 14 hours. Cancer cell death was analyzed by Annexin V analysis. Annexin V/7-Aminoactinomycin D (7-AAD) staining was performed using flow cytometry according to the manufacturer's guidelines (BD Pharmingen, San Diego, Calif., USA). Briefly, cells were washed three times with ice-cold PBS. The cells were then resuspended in 100 μl of binding buffer and incubated with 1 μl of 7-AAD and 1 μl of annexin V-PE for 30 min in the dark at 37° C. Flow cytometric analysis was immediately performed using a guava easyCyte™ 8 Instrument (Merck Millipore, Darmstadt, Germany).
(§2) The effect of inducing apoptosis of Chang liver cells was measured in the same manner as in Example 11-2, except that as target cell lines, normal Chang liver cells and hepatocellular carcinoma cell lines, Hep3B, HepG2, Huh7, and SK-HEP-1 were used, and as a reference drug, 5-FU® (IC50: 40 μM) was used.

normal Chang liver cells = experiment: Induction of apoptosis, Annexin V/7-AAD staining; format: cell-based, human; details: example 20-2
Procedure: as §1, §2

HepG2 tumor = experiment: Anti-tumor activity in cell-derived xenograft model; details: for inhibition on the tumor size: observation 3 weeks
Procedure: Female Balb/c^nu/nu mice (5-week-old, Doo-Yeol Biotech Co. Ltd. Korea) were subcutaneously implanted with Hep3B2.1-7 tumor block (1 mm^3) into the left back side of the mouse. […] Tumor size was monitored by measuring the longest (length) and shortest dimensions (width) once a day with a dial caliper, and tumor volume was calculated as width2×length×0.5.
Then, tumor volumes were examined. […] Then, tumor volumes were examined.

AGS cells [2] = experiment: Wound cell migration inhibition in gastric carcinoma cells; format: cell-based; details: 10 μM 2 hrs, additional 24 hrs
Procedure: AGS cells (gastric cancer cell line) were seeded in a 12 well plate at a density of 2.5×10^5 per well, grown to 90% confluence. Confluent AGS cells were incubated with 10 μM HM#S3B in serum-free medium for 2 hrs prior to changing the growth medium (DMEM/F12, Hyclone, Logan, Utah, USA) and washed twice with PBS, and the monolayer at the center of the well was “wounded” by scraping with a sterilized white pipette tip. Cells were cultured for an additional 24 hrs and cell migration was observed by phase contrast microscopy (Nikon, ECLIPSE Ts2). The migration was quantified by counting the number of cells that migrated from the wound edge into the clear area.

[3] = test system: tumor tissues (Hep3B CDX, HepG2 CDX); experiment: Biomarker expression in xenograft tumor tissues (RT-PCR, Western blotting, IHC); format: in vivo, Balb/c nu/nu mice
Procedure: Tumor tissues were finely minced using a homogenizer according to the manufacturer's protocol of Hybrid-R (geneall, Korea), and then mRNA was isolated therefrom. 1 ug of mRNA thus separated was used to synthesize cDNA using an Accupower RT Premix (Bioneer, Korea). PCR was performed using 2 ul of cDNA and the primers of Table 45. PCR was performed using an Accupower PCR Premix (Bioneer, Korea) for 30 cycles consisting of denaturing (95° C.), annealing (60° C.), and extending (72° C.) for 45 seconds each.
Immunohistochemistry (IHC) Tissue samples were fixed in 4% Paraformaldehyde (Duksan, South Korea) for 3 days, dehydrated, cleared with xylene and embedded in Paraplast. Sections (6 μm thick) of tumor were placed onto poly-L-lysine coated slides. To block endogenous peroxidase activity, sections were incubated for 15 min with 3% H2O2 in methanol. After washing three times with PBS, slides were incubated for 30 min with blocking solution (5% fetal bovine serum in PBS). Mouse anti-Bax antibody (sc-7480, Santa Cruz Biotechnology, SantaCruz, Calif., USA) and rabbit anti-VEGF (ab46154, Abcam, Cambridge, UK) were diluted 1:1000 (to protein concentration 0.1 μg/ml) in blocking solution, applied to sections, and incubated at 4° C. for 24 hrs. After washing three times with PBS, sections were incubated with biotinylated mouse and rabbit IgG (Vector Laboratories, Burlingame, Calif., USA) at a 1:1000 dilution for 1 hr at room temperature, then incubated with avidin-biotinylated peroxidase complex using a Vectorstain ABC Kit (Vector Laboratories, Burlingame, Calif., USA) for 30 min at room temperature. After the slides are reacted with oxidized 3, 3-diaminobenzidine as a chromogen, they were counterstained with Harris hematoxylin (Sigma-Aldrich, USA). Permanently mounted slides were observed and photographed using a microscope equipped with a digital imaging system (ECLIPSE Ti, Nikon, Japan).
mRNA levels were analyzed using the tumor tissues removed at 2 weeks (Hep3B CDX, day 35) or 3 weeks (HepG2 CDX, day 42) after termination of drug administration to analyze changes in expressions of major biomarker genes by iCP-SOCS3.
Further, tumors removed at 2 weeks (Hep3B CDX, day 35) or 3 weeks (HepG2 CDX, day 42) after termination of drug administration were used to perform Western blotting and IHC, and increase or decrease in the expressions of cancer activity regulating factors by iCP-SOCS3 was observed.

AGS cells [4] = experiment: Induction of apoptosis by Annexin V/7-AAD staining in gastric carcinoma cells; format: cell-based; details: 10 uM, 14 hours
Procedure: as §1

Huh-7 cells = experiment: Transwell migration assay; format: cell-based, human; details: 24 hrs, compared with vehicle and non-permeable SOCS3
Procedure: (§3) The lower surface of Transwell inserts (Costar) was coated with 0.1% gelatin, and the membranes were allowed to dry for 1 hr at room temperature. The Transwell inserts were assembled into a 24-well plate, and the lower chamber was filled with growth media containing 10% FBS and FGF2 (40 ng/ml). Cells were added to each upper chamber at a density of 5×10^5, and the plate was incubated at 37° C. in a 5% CO2 incubator for 24 hrs. Migrated cells were stained with 0.6% hematoxylin and 0.5% eosin and counted.

SK-Hep-1 cells [5] = experiment: Transwell migration assay; format: cell-based, human; details: 24 hrs, compared with vehicle and non-permeable SOCS3
Procedure: as §3

HepG2 cells = experiment: Transwell migration assay; format: cell-based, human; details: 24 hrs, compared with vehicle and non-permeable SOCS3
Procedure: as §3

[6] = listed as aMTD165-fused SOCS3 recombinant protein
[7] = day 35 (Hep3B CDX) or day 42 (HepG2 CDX)

B1: HM165S3B: His-tagged recombinant protein of aMTD165, human SOCS3 and solubilization domain B; prototype improved cell-permeable SOCS3 (protein)
chain: MGSSHHHHHHSSGLVPRGSHMALAVPVALAIVPVTHSKFPAAGMETSRPLDTSLRLKTFSSKSEYQLVVNAVRKLQESGFYWSAVTGGEANLLLSAEPAGTFLIRDSSDQRHFFTLSVKTQSGTKNLRIQCEGGSFSLQSDPRSTQPVPRFDCVLKLVHHYMETPPPGAPSFPSPPTEPSSEVPEQPSAQPLPGSPPRRAYYIYSGGEKIPLVLSRPLSSNVATLQHLCRKTVNGHLDSYEKVTQLPGPIREFLDQYDAPLGSMAEQSDKDVKYYTLEEIQKHKDSKSTWVILHHKVYDLTKFLEEHPGGEEVLGEQAGGDATENFEDVGHSTDARELSKTYIIGELHPDDRSKIAKPSETL
modifications: Amino acid sequence of HM165S3B
- induction of apoptosis (Annexin V), SK-HEP-1 (SK-Hep-1 cells [1]): considerably efficient inducer of apoptosis
- induction of apoptosis (Annexin V), normal Chang liver cells (normal Chang liver cells): dose not induced apoptosis in normal cells
- tumor growth inhibition at day 42 (HepG2 tumor; IV 600 μg/head for 21 days, 3 weeks after termination): 67%
- inhibition on the tumor size (HepG2 tumor; IV 25 mg/kg every day for 3 weeks): 60%
- inhibition on the tumor size (HepG2 tumor; IV 50 mg/kg every day for 3 weeks): 76%
- inhibition on the tumor size (HepG2 tumor; IV 50 mg/kg three times a week for 3 weeks): 66%
- inhibition of cell migration (wound) (AGS cells [2]): inhibiting migration of gastric carcinoma cells
- inhibition of cell migration (wound) (AGS cells [2]; [6]): showed the most effective inhibition of cancer cell migration
- expression of Bax in tumor tissues ([3]; Western blotting and IHC): increased
- expression of Bcl-2 in tumor tissues ([3]; Western blotting and IHC): decreased
- expression of VEGF in tumor tissues ([3]; Western blotting and IHC): remarkably decreased
- expression of p21 in tumor tissues ([3]; Western blotting and IHC): increased
- expression of GOLPH2 in tumor tissues [3, 7]: remarkably reduced
- mRNA expressions of Bax, cyclinD1, cyclinE, PCNA, VEGF, FAK-related genes in tumor tissues [3, 7]: significantly regulated
- induction of apoptosis (Annexin V) (AGS cells [4]): showed high anticancer efficacy; also recorded: effects of inducing apoptosis
- induction of apoptosis (Annexin V) (AGS cells [4]; [6]): induced death of the largest number of cancer cells
- Transwell migration, Huh-7 (Huh-7 cells): significant inhibitory effect on their Transwell migration
- Transwell migration, SK-Hep-1 (SK-Hep-1 cells [5]): significant inhibitory effect on their Transwell migration
- Transwell migration, HepG2 (HepG2 cells): significant inhibitory effect on their Transwell migration
